The record followed here is patent US20040171000A1.

This experiment deals with human telomerase (active telomerase from HeLa cell nuclear extract; catalytic subunit hTERT) (human) (UniProt O14746). Put plainly: cell-based or functional assay.
Sequence of human telomerase (active telomerase from HeLa cell nuclear extract; catalytic subunit hTERT) (human) (O14746 whole entry): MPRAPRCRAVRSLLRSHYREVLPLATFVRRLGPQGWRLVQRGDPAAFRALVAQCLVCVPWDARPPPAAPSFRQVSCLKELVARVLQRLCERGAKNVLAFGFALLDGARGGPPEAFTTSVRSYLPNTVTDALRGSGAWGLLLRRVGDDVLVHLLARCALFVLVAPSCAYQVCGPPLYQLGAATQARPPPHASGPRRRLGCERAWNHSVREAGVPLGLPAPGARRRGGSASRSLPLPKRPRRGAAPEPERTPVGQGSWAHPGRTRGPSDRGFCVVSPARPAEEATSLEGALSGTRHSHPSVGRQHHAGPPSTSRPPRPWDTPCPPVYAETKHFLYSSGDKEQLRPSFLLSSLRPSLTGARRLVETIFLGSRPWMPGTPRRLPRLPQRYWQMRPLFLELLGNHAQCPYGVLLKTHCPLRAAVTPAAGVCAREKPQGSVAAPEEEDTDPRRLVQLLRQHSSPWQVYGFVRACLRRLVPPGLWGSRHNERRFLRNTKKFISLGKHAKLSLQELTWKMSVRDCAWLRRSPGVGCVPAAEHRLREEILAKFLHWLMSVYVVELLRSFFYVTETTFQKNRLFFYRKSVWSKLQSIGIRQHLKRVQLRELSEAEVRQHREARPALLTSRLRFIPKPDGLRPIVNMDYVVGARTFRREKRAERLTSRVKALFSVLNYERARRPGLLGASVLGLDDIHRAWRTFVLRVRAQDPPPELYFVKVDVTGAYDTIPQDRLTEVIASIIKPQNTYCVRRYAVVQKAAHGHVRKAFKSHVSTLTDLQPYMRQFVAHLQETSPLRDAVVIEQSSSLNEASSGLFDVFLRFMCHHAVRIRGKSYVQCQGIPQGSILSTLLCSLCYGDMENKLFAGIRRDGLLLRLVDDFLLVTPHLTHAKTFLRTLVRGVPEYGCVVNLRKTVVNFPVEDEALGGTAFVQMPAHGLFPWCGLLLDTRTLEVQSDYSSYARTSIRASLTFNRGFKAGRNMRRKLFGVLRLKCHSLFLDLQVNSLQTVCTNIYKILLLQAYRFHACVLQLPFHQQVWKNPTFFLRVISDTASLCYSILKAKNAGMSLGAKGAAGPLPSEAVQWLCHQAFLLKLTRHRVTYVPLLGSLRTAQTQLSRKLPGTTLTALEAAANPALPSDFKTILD

In the case of “EST1-0732 (human EST1 protein of SEQ ID No 2) (from UniProt Q86US8 1-1419)”, the telomerase activity immunoprecipitated by antibodies to SEQ ID No 7 was determined as 70%.
